Molecular target: NOTCH2^ΔERA-TurboID (human)
Assay: proximity labelling

For “endogenous human NOTCH2 (from UniProt Q04721 26-2471) (natural protein)”, the Log2FC NICD2RA-vs-NICD2 was -2.03 Log2FC and the percent of the NOTCH2 recovered, NICD2RA against NICD2 was 13%.

— publication doi:10.1101/2024.04.26.591336
